Measured values as given in the supplement of paper PMC10567573.
± gives the standard deviation.

Assay: protein stability index of a GFP-peptide fusion (GPS, HEK-293T) (PSI 1-6); higher = more stable
Details: c terminus: a fixed tail appended
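Also: 24-mer peptide tiles fused after GFP, lentivirally expressed, FACS-sorted into six equal bins by GFP/DsRed ratio, decoded by Illumina sequencing, PSI is the read-weighted mean bin number.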

| Sequence | protein stability index (treatment: DMSO) | protein stability index (treatment: MLN4924 1 uM, 8 h) |
| --- | --- | --- |
| GENSDGCYEHFAELDIPQSVQQNG [CLPTM1] | 5 ± 0.33 | 5.01 ± 0.32 |
| GFCFFNSVAVAARHAQTISGHALR [HDAC6] | 2.25 ± 0.43 | 1.76 ± 0.28 |
| GFPGERTYNTKVYKMFASRRKQRY [LOXL2] | 2.72 ± 0.42 | 2.98 ± 0.51 |
| GGACPAFLPSLRPPPLTSPSHGSL [NCF4] | 3.59 ± 0.092 | 3.71 ± 0.28 |
| GGGEGKAMYIDTEGTFRPERLLAV [RAD51] | 2.69 ± 0.32 | 2.9 ± 0.37 |
| GGGGGGLPISTVREVALLRRLEAF [CDK4] | 3.19 ± 0.3 | 3.23 ± 0.34 |
| GGNPFAEPSELDNPFQDPAVIQHR [SCAMP3] | 4.67 ± 0.14 | 4.98 ± 0.17 |
| GHLFPPPTPIFAGGANDRWVRSVS [WSB1] | 2.66 ± 0.18 | 2.39 ± 0.4 |
| GHPVGLALEAAVHVQKLSQECLKQ [TRIM14] | 3.07 ± 0.2 | 3.14 ± 0.28 |
| GHTPLMEAGSAGHVEVARLLLENG [ANKRD17] | 4.22 ± 0.24 | 4.17 ± 0.24 |
| GIEHAQCVPPSEFSEPSFITESYQ [ETS1] | 4.44 ± 0.12 | 4.15 ± 0.3 |
| GIKTVIVNMVDVAKALNRPPTYPT [EIF5] | 2.32 ± 0.48 | 2.4 ± 0.59 |
| GIKVQNGGIVTDTPASNHLPGWED [SLC19A2] | 4.4 ± 0.23 | 4.77 ± 0.28 |
| GKPPTAHLDRTSVSSLSEVEEVDM [ELOA2] | 5.51 ± 0.11 | 5.41 ± 0.29 |
| GKTAASWCLHVNNWLQVSFTAKHA [FSD1] | 3.23 ± 0.46 | 3.09 ± 0.76 |
| GLANGLQLLCPWAPLSGPQALMLP [VENTX] | 2.01 ± 0.31 | 2.1 ± 0.36 |
| GLETGDWGGAPKEGSIWRGAQMEK [ZSWIM9] | 4.07 ± 0.3 | 4.45 ± 0.22 |
| GLETLFSKAQELGGAGREDPGLWS [ZSWIM9] | 3.18 ± 0.5 | 3.39 ± 0.23 |
| GLGRPTPGLSQGPGKETLESALIA [EHMT1] | 3.95 ± 0.13 | 4.29 ± 0.22 |
| GLKGRTLYPAVSAVWGQCQVRIRY [SPSB2] | 2.98 ± 0.77 | 2.67 ± 0.56 |
| GLLDLNNAILQLVKKYKSMKLEKE [ESRRG] | 2.65 ± 0.14 | 2.9 ± 0.82 |
| GLLNDTSAPHLENSGHTIFNDPFF [KCNA4] | 4.17 ± 0.19 | 4.28 ± 0.28 |

| Sequence | protein stability index (treatment: DMSO) | protein stability index (treatment: MLN4924 1 uM, 8 h) |
| --- | --- | --- |
| GLQDTITAELVVIEDAAEPKEPAP [PALM] | 5.06 ± 0.19 | 5.1 ± 0.18 |
| GLSAGYVDAGAEPGRSRMISQEEF [LPCAT4] | 4.47 ± 0.32 | 4.78 ± 0.23 |
| GLSPEEKEQLSNDRETQEGKPPTA [ELOA2] | 5.6 ± 0.22 | 5.31 ± 0.46 |
| GLTFLLPFLFFGHFWQLFNALTLF [TMEM120A] | 2.85 ± 0.11 | 2.63 ± 0.052 |
| GMQMAEDSKSLKTHQTQPGIRRAR [NET1] | 4.78 ± 0.36 | 4.69 ± 0.46 |
| GMRDADYIAAFLHVLLPVALEFQP [HDAC6] | 3.02 ± 0.47 | 2.96 ± 0.42 |
| GNSISISALQSLLQHLIGLSNLTH [PRAME] | 2.54 ± 0.036 | 2.62 ± 0.41 |
| GNSRSAPPTRGPPPSYGGSSRYDD [RBMX] | 4.94 ± 0.34 | 5.05 ± 0.15 |
| GPIPSHMIHRTRKQKYFYKGGLVW [CLK3] | 2.47 ± 0.027 | 2.45 ± 0.24 |
| GPMRPEQFSDEVEPATPEEGEPAT [GAGE1] | 5.39 ± 0.2 | 5.266 ± 0.044 |
| GPRFGPRNDKIKHVQNQVDEVIDV [VAMP4] | 4.24 ± 0.49 | 4.63 ± 0.22 |
| GPRFLAYFGSFATVGLLWFAHHSL [TMEM175] | 3.17 ± 0.2 | 3 ± 0.27 |
| GQRLAVCVPAHPPPCAWACPVPAH [CTBP1-DT] | 2.7 ± 0.39 | 2.8 ± 0.1 |
| GREEKCVWKHGITPPLKNVRKKRF [TAF7L] | 3.98 ± 0.34 | 4.03 ± 0.41 |
| GSDAEQSTSGQPYPTSDQEGDPGS [LCOR] | 5.53 ± 0.35 | 5.59 ± 0.28 |
| GSKVTCRGLLEYFKAYIKIYQGED [ATL3] | 2.31 ± 0.14 |  |
| GSKYYNVEAMYCYLRCIQSEVSFE [SMG5] | 3.05 ± 0.94 | 2.1 ± 0.68 |
| GSLDLVPGGLTLEEHSLEQVQSMV [SPDEF] | 4.35 ± 0.38 | 4.66 ± 0.21 |
| GSRSNGMWAHSMTVQDYQDLIDRG [ATE1] | 3.92 ± 0.29 | 4.08 ± 0.29 |
| GTKQGHLLLYRIRKDVGCNRFEVT [VPS39] | 2.12 ± 0.37 | 2.41 ± 0.28 |
| GTLDNSKSMKPYNYCSAYESFYES [NEUROD6] | 3.02 ± 0.41 | 3.12 ± 0.35 |
| GTTYLPGIVGLNNIKANDYANAVL [USP39] | 2.47 ± 0.097 | 2.44 ± 0.23 |

| Sequence | protein stability index (treatment: DMSO) | protein stability index (treatment: MLN4924 1 uM, 8 h) |
| --- | --- | --- |
| GVADFSATYLRCQLLLIKALQEKL [INTS4] | 2.77 ± 0.42 | 2.65 ± 0.48 |
| GVLDALHVLEGLFRTDPEAKVKLV [ZSWIM9] | 2.28 ± 0.23 | 2.25 ± 0.18 |
| GVNTVFHCASPPPSSNNKELFYRV [NSDHL] | 2.53 ± 0.23 | 2.4 ± 0.1 |
| GVSFHIDSAELEPGSQTAVKNSNR [FBXO34] | 4.71 ± 0.26 | 5.03 ± 0.38 |
| GWSTPPKCRSTISAEKCGPPPPID [CFHR2] | 3.72 ± 0.38 | 3.93 ± 0.25 |
| GYGIYYFIYSTWKGRTIYLEDIYV [SAT2] | 2.9 ± 0.16 | 2.78 ± 0.43 |
| GYRQQKAYIATQGPLAETTEDFWR [PTPRD] | 3.28 ± 0.22 | 3.36 ± 0.42 |
| GYSSLDQSPDEKPLVALDTDSDDD [FAM219A] | 5.69 ± 0.17 | 5.48 ± 0.31 |
| GYWRVRLWNGDKYAATTTPFTPLH [TRIM39] | 2.08 ± 0.42 | 2.35 ± 0.93 |
| HALRKKQLKRQKRDYIHSLKLLNV [FAM9B] | 2.6 ± 0.42 | 2.84 ± 0.27 |
| HCWDVAGAGIIVTEAGGVLMDVTG [IMPA1] | 2.4 ± 0.25 | 2.52 ± 0.51 |
| HDPLYGKLFSTYLRPPHTSRGTSQ [LPCAT4] | 3.27 ± 0.34 | 3.76 ± 0.21 |
| HEEERINIYCLNCEVPTCSLCKVF [TRIM55] | 2.95 ± 0.39 | 3.16 ± 0.32 |
| HEEQLQRLKLLKDREVDAATSATS [FBF1] | 5.18 ± 0.28 | 5.25 ± 0.24 |
| HGDARATGREMHGKNWSKLCKDCQ [TPPP] | 4.18 ± 0.13 | 4.53 ± 0.23 |
| HGVELHSDVIEYAKQKLDFFIRTS [PCMTD2] | 2.37 ± 0.2 | 2.48 ± 0.29 |
| HHKVYDLTKFLEEHPGGEEVLREQ [CYB5A] | 4.44 ± 0.27 | 4.65 ± 0.19 |
| HHVEREKDHSSSRPSSPRPQKASP [BTBD10] | 5.36 ± 0.28 | 5.54 ± 0.14 |
| HIDPDVLYPSLNVTSFDSVVPEKL [ALG2] | 3.83 ± 0.25 | 3.91 ± 0.21 |
| HKLQEEKAFREEMKIFREKIEDFR [CCDC70] | 3.38 ± 0.3 | 3.61 ± 0.31 |
| HKPKNSEELYKEIDGVATTRYSVA [PTPRD] | 4.43 ± 0.17 | 4.66 ± 0.21 |
